This note sets out measurements from US10822423 (TRUSTEES OF DARTMOUTH COLLEGE, dated 2020).

In this experiment the target is T1, purified recombinant human CD40L (human, UniProt P29965 113-261, limits assumed).
T1 construct: also called hCD40L; CD154
T1 sequence (looked up): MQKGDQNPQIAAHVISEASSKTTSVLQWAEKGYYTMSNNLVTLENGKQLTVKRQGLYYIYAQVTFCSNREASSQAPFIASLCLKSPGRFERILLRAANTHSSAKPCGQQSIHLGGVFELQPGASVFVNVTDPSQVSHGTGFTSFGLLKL
Description: ELISA: recombinant human CD40L coated, detected with mouse anti-human IgG then HRP goat anti-mouse IgG. As to the method:
Both antibodies were purified by conventional methods and the binding activity of both recombinantly expressed antibodies to hCD40L was assayed. To measure anti-hCD40L variants binding to hCD40L, purified recombinant human CD40L was bound to a 96-well ELISA-grade plate. After blocking, anti-hCD40L variants were added followed by mouse anti-human IgG then horseradish peroxidase-labeled goat anti-mouse IgG. TMB color development was then quantitated at 450 nm by an ELISA reader.
In general terms: ELISA stands for enzyme-linked immunosorbent assay.

B1: Antibody A (anti-human CD40L IgG1 antibody with V215A and E269R mutations in the human IgG1 constant region) (antibody, V domains shown)
VH: EVQLQESGPGLVKPSETLSLTCTVSGDSITNGFWIWIRKPPGNKLEYMGYISYSGSTYYNPSLKSRISISRDTSKNQFSLKLSSVTAADTGVYYCACRSYGRTPYYFDFWGQGTTLTVSS
VL: DIVMTQSPSFLSASVGDRVTITCKASQNVITAVAWYQQKPGKSPKLLIYSASNRYTGVPDRFSGSGSGTDFTLTISSLQPEDFADYFCQQYNSYPYTFGGGTKLEIK
notes: Human IgG1 with V215A and E269R in the constant region, expressed in HEK-293 Freestyle cells; also called anti-hCD40L variant
With B1, the binding result was “binds”.

B2: Antibody B (anti-human CD40L IgG1 antibody with V215A, E269R and K322A mutations in the human IgG1 constant region) (antibody, V domains shown)
VH: EVQLQESGPGLVKPSETLSLTCTVSGDSITNGFWIWIRKPPGNKLEYMGYISYSGSTYYNPSLKSRISISRDTSKNQFSLKLSSVTAADTGVYYCACRSYGRTPYYFDFWGQGTTLTVSS
VL: DIVMTQSPSFLSASVGDRVTITCKASQNVITAVAWYQQKPGKSPKLLIYSASNRYTGVPDRFSGSGSGTDFTLTISSLQPEDFADYFCQQYNSYPYTFGGGTKLEIK
notes: Human IgG1 with V215A, E269R and K322A in the constant region, expressed in HEK-293 Freestyle cells; also called anti-hCD40L variant
Turning to B2, the binding result was “binds”.
